According to patent US20230365705A1 (DYNAMICURE BIOTECHNOLOGY, published 2023):
Values belong to the binder of their own block, whether it stands above or below them.

Key:
[1] = target: T1, Human CD93 recombinant protein (Sino Biological Inc, Catalog #12589-H08H) (human, UniProt Q9NPY3 22-580); assay: ELISA, His-tagged human CD93 coated, OD450
T1 construct: Biotinylated (EZ-LINK NHS-PEG4 biotin) in the BLI assays; also called hCD93; His-tagged human CD93
T1 sequence (looked up): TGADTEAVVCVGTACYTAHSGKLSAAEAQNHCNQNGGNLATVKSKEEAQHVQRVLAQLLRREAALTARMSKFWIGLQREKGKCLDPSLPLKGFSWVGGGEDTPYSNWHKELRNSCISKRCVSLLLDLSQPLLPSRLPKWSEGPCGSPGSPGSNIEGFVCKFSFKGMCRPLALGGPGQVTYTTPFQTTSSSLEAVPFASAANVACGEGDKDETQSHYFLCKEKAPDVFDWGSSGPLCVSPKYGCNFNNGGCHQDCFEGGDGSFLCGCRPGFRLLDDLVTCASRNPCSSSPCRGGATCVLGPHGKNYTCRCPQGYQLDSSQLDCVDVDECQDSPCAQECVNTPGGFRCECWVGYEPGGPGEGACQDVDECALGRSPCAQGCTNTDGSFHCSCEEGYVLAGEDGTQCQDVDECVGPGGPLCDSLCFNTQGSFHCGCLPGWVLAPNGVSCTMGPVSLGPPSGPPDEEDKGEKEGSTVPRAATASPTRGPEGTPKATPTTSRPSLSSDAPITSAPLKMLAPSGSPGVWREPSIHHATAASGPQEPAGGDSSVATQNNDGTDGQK
Procedure: (§1) His-tagged human CD93 was coated onto a 96 well plate at 1 μg/mL in 1×PBS overnight at 4° C. The plate was washed with ELISA wash buffer (Boston BioProduct, Inc.) and the wells were blocked with ELISA blocking buffer for 1 hour at 37° C. […] The plate was washed with ELISA wash Buffer. HRP-conjugated anti-human Fc antibody was incubated for 1 hour at 37° C. The plate was washed with ELISA wash Buffer. HRP substrate was added for indirect detection of the antibodies binding to CD93.

[2] = target: T2, Human CD93 on cells (human CD93 expressing CHO cells; HUVEC, U937 and KG1a cells) (human, UniProt Q9NPY3 22-652); assay: summary table, column FACS (CHO-hCD93 cells)
T2 construct: whole, on cells; also called hCD93 expressing CHO cells; hCD93 CHO cells
T2 sequence (looked up): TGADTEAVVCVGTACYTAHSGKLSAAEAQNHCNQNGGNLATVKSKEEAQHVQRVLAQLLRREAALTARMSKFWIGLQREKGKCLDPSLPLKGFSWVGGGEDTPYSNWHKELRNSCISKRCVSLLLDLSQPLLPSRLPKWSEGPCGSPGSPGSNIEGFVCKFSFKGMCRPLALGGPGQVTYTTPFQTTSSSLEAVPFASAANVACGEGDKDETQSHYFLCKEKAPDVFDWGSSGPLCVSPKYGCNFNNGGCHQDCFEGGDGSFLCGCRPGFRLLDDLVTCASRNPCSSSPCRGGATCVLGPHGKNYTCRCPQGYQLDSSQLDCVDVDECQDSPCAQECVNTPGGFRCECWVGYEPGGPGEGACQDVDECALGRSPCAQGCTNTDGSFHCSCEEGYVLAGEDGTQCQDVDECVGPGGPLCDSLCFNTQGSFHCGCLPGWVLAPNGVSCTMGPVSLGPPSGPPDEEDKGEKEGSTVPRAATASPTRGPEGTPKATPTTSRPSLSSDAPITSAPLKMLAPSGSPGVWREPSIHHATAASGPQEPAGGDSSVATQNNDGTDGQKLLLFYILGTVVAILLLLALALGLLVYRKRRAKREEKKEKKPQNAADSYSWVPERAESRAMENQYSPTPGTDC

[3] = target: T1, Human CD93 recombinant protein (Sino …); assay: summary table, column ELISA (hCD93); 4 weeks at 40 C
Procedure: as §1, §1

[4] = target: T1, Human CD93 recombinant protein (Sino …); assay: summary table, column Octet (hCD93); 4 weeks at 40 C
Procedure: (§2) The binding affinity of anti-CD93 antibodies was determined with bio-layer interferometry using Octet QKe (Fortebio). […] Human CD93 recombinant protein (Sino Biological Inc, Catalog #12589-H08H) was biotinylated using EZ-LINK NHS-PEG4 biotin (Thermo Fisher Scientific). Streptavidin biosensors (Fortebio) were used to load biotinylated CD93 protein (300 seconds in 5 μg/ml). Baseline was stabilized for 60 seconds in 1×kinetics buffer (Fortebio) before anti-CD93 antibodies, at a serial dilution, were allowed to associate for 300 seconds with captured protein. Then the sensors were dissociated in 1× kinetics buffer for 600 seconds. […] (FIG. 41).
as §2, with “1× kinetics” for “1×kinetics”, “42).” for “41).”

[5] = target: T2, Human CD93 on cells (human CD93 …); assay: summary table, column FACS (KG1a cells); 2 weeks at 40 C
Procedure: (§3) KG1a cells were detached by incubation with TrypLE reagents (Thermo Fisher), which preserves the integrity of CD93 on the cell surface. Then the cells were incubated with serial diluted anti-CD93 antibodies for 30 minutes at 4° C. After washing by FACS buffer, the cells were incubated with Alexa Fluor 647 conjugated anti-human IgG (Jackson ImmunoResearch) for 30 minutes in 4° C. After washing by FACS buffer twice, the samples were acquired in NovoCyte Flow Cytometer and analyzed by NovoExpress software.
as §3

[6] = target: T2, Human CD93 on cells (human CD93 …); assay: summary table, column FACS (CHO-hCD93 cells); 2 weeks at 40 C
[7] = target: T2, Human CD93 on cells (human CD93 …); assay: flow cytometry titration, KG1a cells; antibody stored 2 weeks at 40 C
Procedure: as §3

EC50 [1]: 33 pM
EC50 [2]: 388 pM
EC50 [3]: 51 pM
Kd [4]: 112 pM
EC50 [5]: 113 pM
EC50 [6]: 274 pM
EC50 [7]: 113 pM
B1: h16E4 (humanized 16E4, VH4+VL6) (antibody, V domains shown)
VH: QVQLVQSGAEVKKPGASVKVSCKASGYTFTSYWMHWVRQAPGQGLEWMGEIDPSASYTYYNQKFKGRVTMTRDKSSSTVYMELSSLTSEDSAVYYCARSVYYGNKYFDVWGAGTTVTVSS
VL: DIQMTQSPSTLSASVGDRVTITCKASQSVDYAGDSYMNWYQQKPGKAPKLLIYAASNLESGVPSRFSGSGSGTEFTLTISSLQPDDFATYYCQQTNEDPRTFGGGTKLEIK
notes: Detected with anti-human IgG, so a human Fc

EC50 [1]: 42.7 pM
EC50 [3]: 40.7 pM
Kd [4]: 487 pM
EC50 [5]: 21 pM
EC50 [6]: 194 pM
EC50 [7]: 21 pM
B2: h7F3 (humanized 7F3, VH3+VL3) (antibody, human IgG1, V domains shown)
VH: QVQLVQSGAEVKKPGASVKVSCKASGYTFTDYEMHWVRQAPGQGLEWMGGIDPETGDTAYNQNFKGRVTMTTDTSTSTAYMELRSLTSDDTAVYYCTNYGNLYYYAMDYWGQGTSVTVSS
VL: EIVLTQSPSSLSASVGDRVTITCRASSSVSSSYLHWYQQKPGKAPKLLIYSTSNLAFGVPSRFSGSGSGTSYTFTISSLQPEDIATYYCQQYSGYPLTFGSGTKLEIK
notes: also called humanized 7F3-hIgG1

EC50 [2]: 590 pM
B3: 16E4 (hybridoma) (antibody, IgG2a, V domains shown)
VH: QVQLQQPGAELVKPGASVKLSCKASGYTFTSYWMHWVKQRPGQGLEWIGEIDPSASYTYYNQKFKGKATLTVDKSSSTAYMQLSSLTSEDSAVYYCARSVYYGNKYFDVWGAGTTVTVSS
VL: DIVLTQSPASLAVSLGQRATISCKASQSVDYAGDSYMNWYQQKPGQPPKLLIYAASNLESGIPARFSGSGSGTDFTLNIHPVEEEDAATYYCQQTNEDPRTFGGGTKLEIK
notes: also called 16E4 mAb; 16E4 mIgG2a
